Experimental data taken from patent US20050272649A1, “Conjoint administration of morphogens and ACE inhibitors in treatment of chronic renal failure” (priority 2002, published 2005).
Entries after “also recorded” stand apart in the source; their conditions may differ. Like-named read-outs stand apart in the source and are kept apart here.

Experiments:
[1] = system: unilateral ureteral ligation in Sprague-Dawley rats; conditions: cited from earlier work; for renal blood flow (RBF): during UUO; for interstitial inflammation, fibrogenesis / renal (tubulointerstitial) fibrosis: OP-1 100 or 300 μg/kg, first 5 days after obstruction, compared with enalapril
hypertension = conditions: enalapril 20 mg per day; three-month study; cited from earlier work
[2] = system: rat remnant kidney model (5/6 NPX); test: rat partial (5/6) nephrectomy chronic renal failure injury model; type: in vivo
Text: A rat partial (5/6) nephrectomy or rat remnant kidney model (RRKM) model was employed essentially as described (Vukicevic, et al. (1987) J. Bone Mineral Res. 2: 533, the entire content of which is incorporated herein by reference). Male Munich-Wistar rats (2-3 months old, weighing about 200-250 g) were subjected to renal mass ablation. Specifically, the right kidney is excised in conjunction with selective ligation of the left renal artery branches such that one third of the kidney remains perfused (5/6 NPX, see FIG. 12). Immediately following surgery, plasma creatinine and BUN levels rise dramatically due to the loss of renal mass and function. Over the next several weeks of this “acute” failure phase, plasma creatinine and BUN levels of surviving animals decline somewhat toward normal values but remain elevated. Renal function then appears to remain relatively constant or stable for a period of variable duration. After this point, the animals enter a period of chronic renal failure in which there is an essentially linear decline in renal function ending in death. For these reasons, animals are given 4 weeks of recovery prior to initiation of treatments.
Four weeks after nephrectomy, rats were divided into four treatment groups (see Table III), namely OP-1 (150 μg/kg body weight, 3×/week, by i.p. injection), Vehicle (20 mM arginine/150 mM NaCl, 0.1% Tween-80, pH 9.0, 1 ml/kg body weight, 3×/week, by i.p. injection), enalapril (100 mg/L in drinking water, 8-16 mg/kg body weight), and OP-1 with enalapril. For the first two groups (OP-1 and Vehicle), animals were sacrificed 14 weeks after nephrectomy. For the last two groups (enalapril, and OP-1 with enalapril), animals were sacrificed 26 weeks after nephrectomy. As surgical controls, rats were subjected to a “sham” operation in which the kidneys were decapsulated but no renal tissue was removed. Sham-treated animals were sacrificed 26 weeks after operation. None of the rats died in any group during this study. Systolic blood pressure, urine protein and/or glomerulosclerosis were monitored at intervals between 4 and 26 weeks post surgery.

[3] = system: streptozotocin diabetic Sprague-Dawley rats; type: in vivo; conditions: preliminary / unpublished studies
[4] = solubility of mature OP-1 with casein; type: physicochemical; conditions: addition of 0.2% casein; mature active form of OP-1
Text: Association of the mature morphogen dimer with a morphogen pro domain results in the pro form of the morphogen which typically is more soluble in physiological solutions than the corresponding mature form. In fact, endogenous morphogens are thought to be transported (e.g., secreted and circulated) in the mammalian body in this form. This soluble form of the protein can be obtained from culture medium of morphogen-secreting mammalian cells, e.g., cells transfected with nucleic acid encoding and competent to express the morphogen. Alternatively, a soluble species can be formulated by complexing the mature, morphogenically active polypeptide dimer (or an active fragment thereof) with a morphogen pro domain polypeptide or a solubility-enhancing fragment thereof. Solubility-enhancing pro domain fragments can be any N-terminal, C-terminal or internal fragment of the pro region of a member of the morphogen family that complexes with the mature polypeptide dimer to enhance stability and/or dissolubility of the resulting noncovalent or covalent complex. Typically, useful fragments are those cleaved at the proteolytic site Arg-Xaa-Xaa-Arg (SEQ ID NO: 30). A detailed description of soluble complex forms of morphogenic proteins, including how to make, test and use them, is described in WO 94/03600 (PCT US 93/07189). […]

[5] = system: unilateral ureteral ligation in Sprague-Dawley rats; test: Unilateral Ureteral Obstruction (UUO) renal fibrosis model; type: in vivo, rat; conditions: for loss of medullary tissue in the kidney: untreated about 24%
Text: This UUO model was employed essentially as described (Moller, et al. (1984) Virchows Arch 402: 209-237, the entire contents of which are incorporated herein by reference). Sprague-Dawley rats (about 250 g) underwent either a sham operation (ureter manipulated but not ligated) or unilateral ureteral ligation. Two ligatures, 5 mm apart, were placed in the upper two-thirds of the ureter over a section of polyethylene tubing placed around the ureter (see FIG. 17). The suture tied to obstruct the ureter was removed along with the tubing at day 5, relieving the obstruction. […] Uremia is avoided by the function of the contralateral kidney, which undergoes hypertrophy and hyperplasia as the obstructed kidney is destroyed. The renal injury of UUO is mediated in part through stimulation of renal angiotensin II production, which activates type-1 A-II Receptor and the downsteam TGF-β in a cascade of events culminating in tubulointerstitial inflammation and fibrosis. Inhibition of angiotensin II production by ACE inhibitors (or inhibition of A-II receptors) decreases expansion of the renal interstitium associated with fibrosis.
The effect of OP-1 on Renal fibrosis has been published (Hruska, et al. (2000) Am J Physiol Renal Physiol 279:F130-43, incorporated herein by reference), and a summarization is as follows. […] Additional effects of OP-1 have been observed in this rat UUO model.

[6] = summary of the nephrectomy model

Molecule	tubular atrophy ([1]; UUO rats)	renal blood flow (RBF) [1]	decrease in diastolic blood pressure (hypertension) [mm Hg]	decrease in systolic blood pressure (hypertension) [mm Hg]	proteinuria level (late-stage) ([2]; enalapril 100 mg/L drinking water with or without OP-1, up to 26 weeks after nephrectomy) [mg/day]	Enalapril response: dose and route of administration compared [3]	increase in solubility [4] [%]	interstitial inflammation, fibrogenesis / renal (tubulointerstitial) fibrosis [1]	interstitial inflammation, fibrogenesis / renal (tubulointerstitial) fibrosis ([1]; listed as OP-1/BMP-7)	epithelial cell apoptosis produced by UUO ([1]; UUO rats)	tubular epithelial disruption ([1]; UUO rats)	blood pressure level ([2]; OP-1 150 μg/kg i.p. 3×/week from 4 weeks after nephrectomy, to 14 weeks)	glomerular filtration rate [2, 6]	glomerulosclerosis [2, 6]	loss of medullary tissue in the kidney ([5]; OP-1 at 100 μg/kg)	loss of medullary tissue in the kidney ([5]; OP-1 at 300 μg/kg)	loss of medullary tissue / medullary necrosis (in words) ([5]; UUO rats)
CCOC(=O)[C@H](CCc1ccccc1)N[C@@H](C)C(=O)N1CCC[C@H]1C(=O)O [enalapril, N-(1-ethoxycarbonyl-3-phenylpropyl)-L-ananyl-L-proline, reference compound]	an effect not shared with ACEI enalapril	also stimulated RBF	7.2	8.2	105	no difference in the Enalapril response between 5 and 20 mg/kg; also recorded: equally effective as more arduous means of administering Enalapril											
OP-1: osteogenic protein-1 (OP-1, also known as BMP-7), morphogen of the OP/BMP family; OP-1 used interchangeably with sBMP-7 (protein) STGSKQRSQNRSKTPKNQEALRMANVAENSSSDQRQACKKHELYVSFRDLGWQDWIIAPEGYAAYYCEGECAFPLNSYMNATNHAIVQTLVHFINPETVPKPCCAPTQLNAISVLYFDDSSNVILKKYRNMVVRACGCH	prevention of tubular atrophy; also recorded: reduces tubular atrophy	preserved renal blood flow					80	prevented interstitial inflammation and fibrogenesis; also recorded: more effective in preventing tubulointerstitial fibrosis and in preserving renal function; also recorded: reduces renal fibrosis	Inhibits renal fibrosis	blocked the stimulation of epithelial cell apoptosis	inhibited tubular epithelial disruption	did not dramatically lower the blood pressure level	improves glomerular filtration rate	reduces glomerulosclerosis	about 16%	about 13%	reduces tubular atrophy and medullary necrosis; also recorded: significantly reduced the loss of medullary tissue
